Measurements published in PMC4802042, “A conserved motif in JNK/p38-specific MAPK phosphatases as a determinant for JNK1 recognition and inactivation” (Nature Communications, 2016).

Target: double-phosphorylated JNK1 (phospho-JNK1) (human, double-phosphorylated (sites not stated for this protein))
Assay: cell-based or functional assay

- phosphatase activity for JNK1 dephosphorylation, relative to wild-type MKP7-CD (Fig. 4a): ~10 fold
B1: MKP7-CD (F285D) (domain or fragment, human, UniProt Q9BY84 156-301, looked up)
chain: NIGPTRILPNLYLGCQRDVLNKELMQQNGIGYVLNASNTCPKPDFIPESHFLRVPVNDSFCEKILPWLDKSVDFIEKAKASNGCVLVHCLAGISRSATIAIAYIMKRMDMSLDEAYRFVKEKRPTISPNDNFLGQLLDYEKKIKNQ
